Experimental data reported in patent US20230053131A1 (INTERVET, published 2023).

Molecular target: T1, canine IL-4 receptor alpha on DH82 cells (canine)
T1 construct: Endogenous receptor of the canine DH82 cell line in the STAT-6 assay; also called canine IL-4Rα; IL-4R alpha
T1 chain: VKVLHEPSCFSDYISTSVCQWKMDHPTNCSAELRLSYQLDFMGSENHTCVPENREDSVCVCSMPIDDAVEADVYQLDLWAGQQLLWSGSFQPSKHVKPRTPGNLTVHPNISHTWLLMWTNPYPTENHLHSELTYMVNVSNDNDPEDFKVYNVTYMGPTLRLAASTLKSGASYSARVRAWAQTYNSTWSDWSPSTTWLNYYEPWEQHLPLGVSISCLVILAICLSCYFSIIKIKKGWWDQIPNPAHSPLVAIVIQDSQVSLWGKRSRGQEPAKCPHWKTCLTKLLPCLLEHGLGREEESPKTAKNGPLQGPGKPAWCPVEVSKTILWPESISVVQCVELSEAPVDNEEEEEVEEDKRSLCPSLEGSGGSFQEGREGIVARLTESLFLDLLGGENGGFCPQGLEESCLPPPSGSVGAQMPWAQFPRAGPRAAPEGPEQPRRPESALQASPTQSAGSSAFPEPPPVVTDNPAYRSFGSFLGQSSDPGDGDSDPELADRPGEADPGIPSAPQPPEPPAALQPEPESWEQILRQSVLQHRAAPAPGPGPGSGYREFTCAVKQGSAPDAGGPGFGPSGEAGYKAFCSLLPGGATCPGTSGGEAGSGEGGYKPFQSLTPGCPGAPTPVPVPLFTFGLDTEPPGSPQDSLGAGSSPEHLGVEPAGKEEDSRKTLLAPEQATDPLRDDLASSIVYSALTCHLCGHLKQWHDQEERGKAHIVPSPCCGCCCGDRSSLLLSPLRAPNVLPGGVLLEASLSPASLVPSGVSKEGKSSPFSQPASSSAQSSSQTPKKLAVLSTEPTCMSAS
Assay: inferred by the filing from inhibition of STAT-6 phosphorylation in DH82 cells
Protocol: Methods [0121] 1. Two tissue culture plates were seeded with 8×10⁴ DH82 cells per well (200 μL with the density of 4×10⁵ cells/mL) and incubated at 37° C. overnight. [0122] 2. The test antibodies were pre-diluted to 500 μg/mL and then 3-fold serially diluted in DH82 Cell Growth Media. The media was removed from the cell culture plates and 50 μL/well of the serially diluted test sample were transferred to each plate. [0123] 3. Canine IL-4 was diluted to 5 ng/mL in DH82 Cell Growth Media and 50 μL was added to each well of one plate. Canine IL-13 was diluted to 10 ng/mL in DH82 Cell Growth Media and 50 μL was added to each well of the second plate. The plates were incubated for 15 min at 37° C. [0124] 4. The media was removed from the plates and 100 μL per well of freshly prepared 1× lysis buffer from the AlphaLISA p-STAT-6 Assay Kit was added to the plate. The plate was agitated on a plate shaker with 350 rpm for 10 minutes at room temperature. [0125] 5. The Acceptor Mix was prepared from the AlphaLISA p-STAT6 Assay Kit and […] was added to 30 μL of the cell lysate in 96-well 1/2 Area Plates. The plates were sealed, agitated for 2 minutes at 350 rpm, and then incubated for 2 hours at room temperature. [0126] 6. […] The plates were read using the AlphaScreen settings on the Perkin Elmer EnVison.

binding result: binds
B1: c146E2VL3-cCLk-s/c146E2VH3-cIgG-Bm (antibody, V domains shown)
VH: EVQLVQSGAEVKKPGASVKVSCKASGYTFARYWMHWMKQAPGAGLDWIGMIHPDSGNINYNERFKTKATLTVDKSTSTAYMELSSLRAGDIAVYYCARQLRNAMDYWGQGTLVTVSS
VL: DIVLTQTPLSLSVSPGETASIYCRASESVDSYGNSFLNWYQQKPGQPPKLLIYRASNLASEIPDRFSGSGSRTEFTLKISRVEADDAGVYYCQQNYENPRTFGQGTKLEIKR
notes: Caninized murine anti-canine IL-4R alpha antibody, canine IgG-Bm heavy chain and canine kappa light chain; also called c146E2-H3L3
